From PMC5591422, “A Peptide-Fc Opsonin with Pan-Amyloid Reactivity” (Frontiers in Immunology, 2017)
Ends that are not written are not given here.

T1: IAPP amyloid-like fibrils (human, UniProt P10997 34-70)
T1 construct: islet amyloid polypeptide, the mature hormone; Fibrillar state; also called IAPP fibrils; islet amyloid polypeptide fibrils; source: bought: Anaspec (90% pure); fibrils prepared in sterile PBS
T1 peptide (looked up): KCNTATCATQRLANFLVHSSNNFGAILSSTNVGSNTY


Key:
[1] = target: T1, IAPP amyloid-like fibrils; assay: ELISA; EuLISA: amyloid-like fibrils (0.83 µM) adsorbed to microplate wells overnight at 37°C, blocked with 1% BSA in PBS; Fcp5, biotinylated-p5 or Fc2a titrated in PBS with 1% BSA and 0.05% tween 20; detected with biotinylated goat anti-mouse IgG and europium-streptavidin; estimated EC50; details: both partners purified
[2] = target: rVλ6Wil amyloid-like fibrils; assay: SPR; BIAcore X, CM5 chip coated with rVλ6Wil fibrils (channel 1) and rVλ6Wil monomer (channel 2, subtracted as control); Fcp5 2 µg/mL or p5 0.2 µg/mL, 70 µL, 20 µL/min, 200 s binding and 200 s dissociation; two-state binding algorithm with conformational change
[3] = target: Aβ(1–40) amyloid-like fibrils; assay: ELISA; EuLISA: amyloid-like fibrils (0.83 µM) adsorbed to microplate wells overnight at 37°C, blocked with 1% BSA in PBS; Fcp5, biotinylated-p5 or Fc2a titrated in PBS with 1% BSA and 0.05% tween 20; detected with biotinylated goat anti-mouse IgG and europium-streptavidin; estimated EC50
[4] = target: rVλ6Wil amyloid-like fibrils; assay: as above

| EC50 [1] | Kd [2] | signal deflection [2] | EC50 [3] | EC50 [4] | Binder |
| --- | --- | --- | --- | --- | --- |
| ~200 nM | 5 nM | 100 au | 230 nM | 14 nM | GGGYSKAQKAQAKQAKQAQKAQKAQAKQAKQ (also: biotinylated in EuLISA, site not given here, 125I-labelled in pulldown assays, non-natural 31-amino acid peptide with eight lysines in a heptad repeat; also called biotinylated-p5; source: synthetic peptide (Anaspec), purified by RP-HPLC) [peptide p5] |
| ~15 nM | 3 nM | 200 au | 4 nM | 1 nM | VTPTVGGGYSKAQKAQAKQAKQAQKAQKAQAKQAKQVTPTV (Fc fusion, not fully specified (C-terminus); also: fused to murine IgG2a Fc, glycosylated, site not given here, 5-amino acid spacer flanking p5; peptide p5, non-natural 31-amino acid polybasic peptide; Disulfide-linked dimer by SDS-PAGE (theoretical monomer Mw 31,553); Cloned into the Nco I and Bgl II sites of pFUSE-mIgG2A-Fc in frame with the IL-2 secretory leader and the Fc; also called peptide p5-Fc fusion construct; source: HEK293T/17, transient transfection, purified from culture supernatant (protein …)) [Fcp5 (peptide p5-murine IgG2a Fc fusion)] |
